Results published in patent US8877715B2, “Cytotoxic conjugates having neuropeptide Y receptor binding compound” (priority 2009, dated 2014).

Target: T1, NPY-Y2 receptor (Homo sapiens, UniProt P49146)
T1 construct: the appropriate cells (SK-N-MC for NPY-Y1; host or cells: SK-N-BE2 human neuroblastoma cells (membrane homogenate)
T1 sequence (P49146 1-381): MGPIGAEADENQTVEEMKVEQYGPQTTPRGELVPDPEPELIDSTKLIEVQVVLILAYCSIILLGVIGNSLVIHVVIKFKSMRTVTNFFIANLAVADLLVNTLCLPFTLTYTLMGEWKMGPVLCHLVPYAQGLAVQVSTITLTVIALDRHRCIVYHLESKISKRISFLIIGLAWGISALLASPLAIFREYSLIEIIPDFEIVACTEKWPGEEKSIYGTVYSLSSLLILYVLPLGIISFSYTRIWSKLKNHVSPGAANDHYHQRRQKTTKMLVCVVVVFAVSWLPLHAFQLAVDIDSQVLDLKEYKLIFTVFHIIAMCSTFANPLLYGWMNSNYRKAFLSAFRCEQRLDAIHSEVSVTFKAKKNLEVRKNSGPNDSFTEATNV
Assay: In vitro radioligand NPY-Y2 receptor binding assay ([125I]PYY, SK-N-BE2 cell membranes)
Conditions: [125I]PYY displacement
Description: In Vitro Radioligand NPY-Y1 and NPY-Y2 Receptor Binding Assays
Human neuroblastoma cell lines, SK-N-MC and SK-N-BE2 (American Type Culture Collection, Rockville, Md., USA), expressing the NPY-Y1 and NPY-Y2 receptors, respectfully, were cultured in EMEM containing 10% fetal calf serum and 5% chicken embryo extract, maintained at 37° C. in a humidified atmosphere of and 95% air and 5% CO2.
For the in vitro NPY-Y1 and NPY-Y2 radioligand binding assays, the appropriate cells (SK-N-MC for NPY-Y1; SK-N-BE2 for NPY-Y2) were harvested and then homogenized in 20 ml of ice-cold 50 mM Tris-HCl with a Brinkman Polytron (Westbury, N.Y., USA) (setting 6, 15 sec). The homogenates were washed twice by centrifugation (39,000 g/10 min), and the final pellets were resuspended in 50 mM Tris-HCl, containing 2.5 mM MgCl2, 0.1 mg/ml bacitracin (Sigma Chemical, St. Louis, Mo., USA), and 0.1% BSA.

Substance | Ki [nM]
[Camptothecin-rvD/L-Asp-Suc-Tyr^1, Nle^17, A6c^31, 4Hyp^34]hNPY(1-36)-NH2 [93/93A] | > 1000
[camptothecin-rvD/Lasp-Suc-Tyr^1, Nle^17, 4Hyp^34]hNPY(1-36)-NH2 [Example 92/92A] | > 1000
